# B1: NIP45 expressed from a NIP45 expression plasmid (protein)
# chain: MAEPLRGRGPRSRGGRGARRARGARGRCPRARQSPARLIPDTVLVDLVSDSDEEVLEVADPVEVPVARLPAPAKPEQDSDSDSEGAAEGPAGAPRTLVRRRRRRLLDPGEAPVVPVYSGKVQSSLNLIPDNSSLLKLCPSEPEDEADLTNSGSSPSEDDALPSGSPWRKKLRKKCEKEEKKMEEFPDQDISPLPQPSSRNKSRKHTEALQKLREVNKRLQDLRSCLSPKQHQSPALQSTDDEVVLVEGPVLPQSSRLFTLKIRCRADLVRLPVRMSEPLQNVVDHMANHLGVSPNRILLLFGESELSPTATPSTLKLGVADIIDCVVLASSSEATETSQELRLRVQGKEKHQMLEISLSPDSPLKVLMSHYEEAMGLSGHKLSFFFDGTKLSGKELPADLGLESGDLIEVWG
# Tests used:
# Assay in all cases: cell-based or functional assay
# [1] = target: T1, NF-ATp expressed from an NF-ATp expression plasmid (pREP4-NF-ATp)
# T1 sequence (Q60591 1-927, species assumed, looked up): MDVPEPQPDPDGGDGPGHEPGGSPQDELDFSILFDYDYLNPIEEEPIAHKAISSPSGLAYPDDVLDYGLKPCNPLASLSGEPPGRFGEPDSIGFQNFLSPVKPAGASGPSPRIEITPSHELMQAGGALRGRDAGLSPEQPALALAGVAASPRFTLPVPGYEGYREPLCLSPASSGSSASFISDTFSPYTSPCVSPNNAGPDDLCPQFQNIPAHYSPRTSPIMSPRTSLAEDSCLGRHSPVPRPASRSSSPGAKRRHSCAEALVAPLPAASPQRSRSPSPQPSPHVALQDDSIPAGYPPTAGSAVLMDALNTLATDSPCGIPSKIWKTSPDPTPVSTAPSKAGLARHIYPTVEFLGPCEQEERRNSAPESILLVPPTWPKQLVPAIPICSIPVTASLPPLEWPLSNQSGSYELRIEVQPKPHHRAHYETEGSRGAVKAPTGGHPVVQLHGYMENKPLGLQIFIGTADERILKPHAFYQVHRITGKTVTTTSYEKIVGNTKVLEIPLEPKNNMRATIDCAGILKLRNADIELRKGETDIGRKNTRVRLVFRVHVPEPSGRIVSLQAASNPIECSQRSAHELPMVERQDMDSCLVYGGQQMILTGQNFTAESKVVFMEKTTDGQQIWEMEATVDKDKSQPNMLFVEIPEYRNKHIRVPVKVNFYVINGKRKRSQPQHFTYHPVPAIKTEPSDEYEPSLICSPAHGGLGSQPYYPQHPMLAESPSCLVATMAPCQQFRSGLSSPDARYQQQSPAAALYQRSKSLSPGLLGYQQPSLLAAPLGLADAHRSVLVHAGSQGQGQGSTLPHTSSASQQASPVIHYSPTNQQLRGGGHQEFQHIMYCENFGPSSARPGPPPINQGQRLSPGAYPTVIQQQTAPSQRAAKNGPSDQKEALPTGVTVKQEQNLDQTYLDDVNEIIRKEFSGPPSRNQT
# [2] = target: T2, NF-AT3 expressed from an expression construct
# T2 sequence (Q14934 1-902, species assumed, looked up): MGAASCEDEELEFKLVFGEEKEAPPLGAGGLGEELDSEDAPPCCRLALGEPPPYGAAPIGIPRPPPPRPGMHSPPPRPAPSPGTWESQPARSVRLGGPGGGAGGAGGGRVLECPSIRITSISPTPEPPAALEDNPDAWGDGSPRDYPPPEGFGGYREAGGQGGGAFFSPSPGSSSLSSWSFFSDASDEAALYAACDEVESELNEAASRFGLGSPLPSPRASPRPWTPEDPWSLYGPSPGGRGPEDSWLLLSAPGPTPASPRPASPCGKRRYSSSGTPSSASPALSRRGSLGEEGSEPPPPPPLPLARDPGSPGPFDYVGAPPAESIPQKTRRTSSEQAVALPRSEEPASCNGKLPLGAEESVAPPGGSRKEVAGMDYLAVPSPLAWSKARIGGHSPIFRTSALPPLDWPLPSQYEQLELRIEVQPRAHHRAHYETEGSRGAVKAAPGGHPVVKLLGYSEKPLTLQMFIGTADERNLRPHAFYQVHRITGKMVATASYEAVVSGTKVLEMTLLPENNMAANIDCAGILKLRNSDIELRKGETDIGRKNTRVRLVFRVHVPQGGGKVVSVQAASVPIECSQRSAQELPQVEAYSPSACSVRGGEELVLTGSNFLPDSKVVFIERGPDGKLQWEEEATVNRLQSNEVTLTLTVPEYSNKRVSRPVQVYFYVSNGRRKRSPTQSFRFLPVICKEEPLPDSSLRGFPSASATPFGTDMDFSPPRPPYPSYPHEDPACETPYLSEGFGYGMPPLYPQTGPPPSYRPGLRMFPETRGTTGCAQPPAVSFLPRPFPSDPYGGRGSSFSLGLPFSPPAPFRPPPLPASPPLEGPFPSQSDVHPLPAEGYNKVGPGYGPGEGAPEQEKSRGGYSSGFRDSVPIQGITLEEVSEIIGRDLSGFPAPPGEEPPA
# [3] = target: T1, NF-ATp expressed from an NF-ATp expression plasmid (pREP4-NF-ATp); remark: listed apart in the source
# [4] = target: T3, NF-AT4 expressed from an expression construct
# T3 sequence (Q12968 2-1075, species assumed, looked up): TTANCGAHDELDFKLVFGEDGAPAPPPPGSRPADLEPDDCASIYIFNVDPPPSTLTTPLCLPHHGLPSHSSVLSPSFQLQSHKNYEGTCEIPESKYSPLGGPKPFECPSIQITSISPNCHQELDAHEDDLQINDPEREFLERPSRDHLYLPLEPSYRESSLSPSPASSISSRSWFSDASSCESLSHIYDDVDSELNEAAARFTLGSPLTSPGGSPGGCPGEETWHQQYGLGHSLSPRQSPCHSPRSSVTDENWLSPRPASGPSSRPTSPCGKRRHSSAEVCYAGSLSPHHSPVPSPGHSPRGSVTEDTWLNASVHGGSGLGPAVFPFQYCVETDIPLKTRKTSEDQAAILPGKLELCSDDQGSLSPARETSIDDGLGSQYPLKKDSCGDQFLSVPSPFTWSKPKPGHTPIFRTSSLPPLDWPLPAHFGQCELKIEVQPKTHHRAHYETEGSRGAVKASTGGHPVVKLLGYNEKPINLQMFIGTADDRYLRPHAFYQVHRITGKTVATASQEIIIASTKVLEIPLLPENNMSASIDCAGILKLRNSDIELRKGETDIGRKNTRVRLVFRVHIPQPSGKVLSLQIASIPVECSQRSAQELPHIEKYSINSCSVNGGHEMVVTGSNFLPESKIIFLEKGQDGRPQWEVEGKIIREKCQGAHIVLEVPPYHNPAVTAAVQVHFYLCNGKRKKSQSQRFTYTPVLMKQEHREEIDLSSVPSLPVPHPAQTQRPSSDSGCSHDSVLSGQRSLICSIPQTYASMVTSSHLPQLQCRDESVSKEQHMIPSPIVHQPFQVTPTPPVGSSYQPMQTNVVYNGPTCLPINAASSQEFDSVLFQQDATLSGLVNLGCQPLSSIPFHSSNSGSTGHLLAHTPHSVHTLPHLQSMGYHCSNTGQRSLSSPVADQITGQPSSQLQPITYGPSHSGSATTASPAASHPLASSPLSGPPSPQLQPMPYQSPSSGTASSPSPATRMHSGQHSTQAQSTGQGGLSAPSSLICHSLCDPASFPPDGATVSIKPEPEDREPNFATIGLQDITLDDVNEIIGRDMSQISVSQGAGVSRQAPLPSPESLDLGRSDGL
# [5] = target: T4, NF-ATc expressed from an expression construct
# T4 sequence (O95644 1-943, species assumed, looked up): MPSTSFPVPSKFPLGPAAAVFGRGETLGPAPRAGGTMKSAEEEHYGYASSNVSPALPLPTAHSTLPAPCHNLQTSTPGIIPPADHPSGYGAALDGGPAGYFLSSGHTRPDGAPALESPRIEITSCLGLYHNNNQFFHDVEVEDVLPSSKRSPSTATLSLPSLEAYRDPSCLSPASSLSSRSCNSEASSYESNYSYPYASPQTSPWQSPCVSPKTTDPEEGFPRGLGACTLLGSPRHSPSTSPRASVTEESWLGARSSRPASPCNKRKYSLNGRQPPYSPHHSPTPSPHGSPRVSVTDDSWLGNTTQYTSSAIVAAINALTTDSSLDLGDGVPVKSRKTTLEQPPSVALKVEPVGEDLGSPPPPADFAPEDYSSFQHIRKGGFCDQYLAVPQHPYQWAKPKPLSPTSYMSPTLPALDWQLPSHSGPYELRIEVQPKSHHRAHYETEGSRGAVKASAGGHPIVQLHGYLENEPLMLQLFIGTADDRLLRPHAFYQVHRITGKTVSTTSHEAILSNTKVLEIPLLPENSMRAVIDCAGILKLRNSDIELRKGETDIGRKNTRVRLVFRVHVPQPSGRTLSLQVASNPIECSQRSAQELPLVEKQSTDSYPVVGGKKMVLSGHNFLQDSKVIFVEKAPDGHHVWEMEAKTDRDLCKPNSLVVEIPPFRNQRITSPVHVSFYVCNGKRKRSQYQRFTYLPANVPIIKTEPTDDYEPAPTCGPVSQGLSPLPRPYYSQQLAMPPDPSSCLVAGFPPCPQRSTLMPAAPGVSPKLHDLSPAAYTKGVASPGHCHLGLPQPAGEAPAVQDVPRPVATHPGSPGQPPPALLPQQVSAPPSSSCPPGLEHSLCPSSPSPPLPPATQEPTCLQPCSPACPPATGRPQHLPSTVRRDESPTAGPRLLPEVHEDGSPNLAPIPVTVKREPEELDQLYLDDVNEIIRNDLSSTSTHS
Molecule,"CAT Activity (fold induction), IL-4 CAT reporter in M12 cells, no PMA/iono., Exp. I (fold induction) [1]","CAT Activity (fold induction), IL-4 CAT reporter in M12 cells, no PMA/iono., Exp. II (fold induction) [1]","CAT Activity (fold induction), IL-4 CAT reporter in M12 cells, no PMA/iono., Exp. III (fold induction) [1]","CAT Activity (fold induction), IL-4 CAT reporter in M12 cells, with PMA/iono., Exp. I (fold induction) [1]","CAT Activity (fold induction), IL-4 CAT reporter in M12 cells, with PMA/iono., Exp. II (fold induction) [1]","CAT Activity (fold induction), IL-4 CAT reporter in M12 cells, with PMA/iono., Exp. III (fold induction) [1]",transactivation of the 3X NF-AT-CAT reporter in HepG2 cells [2],"CAT activity, 3X NF-AT-CAT reporter in HepG2 cells, relative to NF-ATp alone [3]","CAT activity, 3X NF-AT-CAT reporter in HepG2 cells, relative to vector alone [3]",transactivation of the 3X NF-AT-CAT reporter in HepG2 cells [4],transactivation of the 3X NF-AT-CAT reporter in HepG2 cells [5]
c-Maf expressed from the c-Maf expression vector pMEX-Maf (full-length 4.3 kb c-maf cDNA clone) (from UniProt P54843 1-370),136,54,26.3,138,100,54.7,,,,,
B1,,,,,,,3 fold,4 to 5 fold,25 to 30 fold,2 fold,4 fold
